This note sets out measurements from publication PMC6920932.

For one data set, the system named is BrCCCBr. The data set is described as follows: purified protein. The conditions noted are these: 100 mM glycine buffer pH 8.6, 37 °C, cooperativity and partial substrate inhibition.
For another data set, the system named is N#CCCCBr. As to the kind of experiment: purified protein. The conditions noted are these: 100 mM glycine buffer pH 8.6, 37 °C, substrate inhibition.
Data set [1] has as its target haloalkane dehalogenase DmxA wild type from Marinobacter sp. ELB17 (Marinobacter sp. ELB17). As to the kind of experiment: SEC; gel filtration chromatography of purified DmxA wt; conditions not told in the text shown.
Data set [2] shares this target. As to the kind of experiment: not stated; DmxA wt in solution; the discussion does not say which experiment gave the share of dimer.
Data set [3] has the same target. The data set is described as follows: native gel or EMSA; native polyacrylamide gel, 4 °C, 115 V, Coomassie stain; reduced (10 mM DTT, degassed, nitrogen) and non-reduced samples compared; LinB (34 kDa, monomer) and DbjA (66 kDa, dimer) as size standards.

In the case of DmxA (Marinobacter sp. ELB17), in the data set with BrCCCBr, the Km came to 30 µM and the turnover number (kcat) came to 2.61 s⁻¹. Moreover, in the data set on N#CCCCBr, the Km turned out to be 670 µM and the turnover number (kcat) was found to be 1.89 s⁻¹.

In the case of “haloalkane dehalogenase DmxA wild type from Marinobacter sp. ELB17 (enzyme)”, the stoichiometry N in data set [1] and in data set [3] was 2 throughout. Further, in data set [2], the percent of the enzyme present as a dimer is less than 30%.
